Laboratory results reported in PMC4791424, “The BAH domain of BAHD1 is a histone H3K27me3 reader” (Protein & Cell, 2016).
No end group written: not given here. me3 = trimethyl on lysine side chain

What was measured:
[1] = molecular target: BAH_(BAHD1) domain (aa 589–780), as used in ITC and HXMS (human) (UniProt Q8TBE0); experiment: ITC; BAH_(BAHD1) domain titrated with histone peptides; optimized buffer condition (Tm 39°C in thermal shift assays)
[2] = molecular target: BAH domain of human BAHD1 (residues 589-780), wild type (human) (UniProt Q8TBE0); experiment: ITC; BAH domain (wild type or mutant) titrated with histone peptide; 15 °C, MicroCal iTC200; 20 mM Tris pH 8.5, 500 mM (NH)2SO4, 5% glycerol; "One Set of Binding Sites" fitting model
[3] = molecular target: T1, BAH domain of human BAHD1 (BAH589-780), wild type (Homo sapiens, UniProt Q8TBE0); experiment: Isothermal titration calorimetry (ITC), wild type BAH domain; type: binding; conditions: wild type BAHBAHD1
T1 construct: The BAH domain encompassing residues 589-780 of human BAHD1 was cloned in to a; 10xHis-SUMO (N, cleaved yes); made in house; host or cells: E. coli BL21 (DE3)
T1 sequence (Q8TBE0 589-780): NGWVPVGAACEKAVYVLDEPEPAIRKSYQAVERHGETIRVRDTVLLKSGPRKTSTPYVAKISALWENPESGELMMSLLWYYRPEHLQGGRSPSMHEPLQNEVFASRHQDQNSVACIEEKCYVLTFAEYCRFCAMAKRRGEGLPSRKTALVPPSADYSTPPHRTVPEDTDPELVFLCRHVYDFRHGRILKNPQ

[4] = molecular target: BAHD1 BAH domain, 589-780 (UniProt Q8TBE0); experiment: isothermal titration calorimetry; conditions: reference: H3K27me3 peptide; sites S28
[5] = molecular target: T2, BAH domain of human BAHD1 (residues 589-780), wild type (human, UniProt Q8TBE0 589-780); experiment: ITC; BAH domain (wild type or mutant) titrated with histone peptide; 15 °C, MicroCal iTC200; 20 mM Tris pH 8.5, 500 mM (NH)2SO4, 5% glycerol; "One Set of Binding Sites" fitting model; conditions: both partners purified
T2 construct: BAHD1 (bromo adjacent homology domain containing protein 1), human, BAH domain, residues 589-780 of the full-length protein (1-780); also called BAH589-780; BAH_(BAHD1); source: E. coli BL21 (DE3), purified (HisTrap, tag cleaved by ULP1, Superdex G75); not shown: 10xHis-SUMO, N-terminal, cleaved
T2 sequence (looked up): T1 sequence (Q8TBE0 589-780)

“H3K27me3 peptide, H3 frame 21–32 (from UniProt P68431 22-33)” showed a fold reduction of binding against H3 (15-42)K27me3 [1] of 7.8 fold.

With histone H3 (15-42) K27me3 peptide the stoichiometry N [2] was 1.

In the case of “NH2-ARTKQTAR(me2s)KS-COOH [H31-10R8me2s, histone H3 peptide residues 1-10 with R8me2s]”, the “binding observed by ITC (in words)” value [3] is reported as “no bindings were observed”.

“ARTKQTARKSTGGK(ac)A-NH2 [H31-15K14ac, histone H3 peptide residues 1-15 with acetylated K14]” was tested, and the “binding observed by ITC (in words)” value [3] was “no bindings were observed”.

For histone H3 (15-42) K27me1 peptide, the stoichiometry N [2] was 1.

With histone H3 (15-42) K27me3 S28ph peptide the stoichiometry N [2] was 1.

In the case of H3K27me1 peptide, the Kd [1] is reported as 2000 µM.

With “H3_(1-15)K9me3 peptide (from UniProt P68431 2-16)” the Kd [1] was 2600 µM.

For “H3K27me3 peptide, H3 frame 19–34 (from UniProt P68431 20-35)”, the fold reduction of binding against H3 (15-42)K27me3 [1] was 3.9 fold.

For histone H3 15-42 H3K27me3S28ph peptide, the KD [4] was “weaker; reference 15.9”.

Work on histone H3 (15-42) K27me2 peptide yielded a stoichiometry N [2] of 1.1.

B1: histone H3 (19-34) K27me3 peptide (peptide)
peptide: QLATKAARKSAPATGG
modifications: trimethyl-lysine at K27 (K(me3))
notes: histone H3, residues 19-34 (A31: as in H3.1/H3.2); source: synthetic peptide (SciLight Biotechnology)
Molecule B1 has a Kd [5] of 61.3 µM.

B2: histone H3 (21-32) K27me3 peptide (peptide)
peptide: ATKAARK(me3)SAPAT
notes: histone H3, residues 21-32 (A31: as in H3.1/H3.2); source: synthetic peptide (SciLight Biotechnology)
In the case of B2, the Kd [5] is reported as 124 µM and the “stoichiometry N” value [5] is reported as 1.1.
